From article PMC12183618 come the findings set out here.

By stoichiometry N is commonly meant the number of molecules, sites or subunits per partner or assembly.

Test [1] has as its target MmpL10‐mEGFP‐FLMsm (Mycobacterium smegmatis). Kind of test: negative-stain electron microscopy; top SEC peak fraction in LMNG at 0.5 μM, uranyl acetate 1%; low-resolution map, C1 symmetry, fitted with a trimeric AlphaFold v3 model.
Test [2] has the same target. Kind of test: SEC; Superose 6 Increase 10/300 GL, 50 mM Tris-HCl pH 8, 150 mM NaCl, 3x CMC LMNG (m1 also in DDM and LDAO); apparent MW from a calibration curve.

On to MmpL10‐mEGFP‐FLMsm (natural protein), for which the stoichiometry N in test [1] and in test [2] was 3 throughout.
